In publication PMC10786891, “Massively parallel profiling of RNA-targeting CRISPR-Cas13d”:

T1: EsCas13d, nuclease-dead (Eubacterium siraeum, UniProt B0MS50, R295A;H300A;R849A;H854A)
T1 sequence: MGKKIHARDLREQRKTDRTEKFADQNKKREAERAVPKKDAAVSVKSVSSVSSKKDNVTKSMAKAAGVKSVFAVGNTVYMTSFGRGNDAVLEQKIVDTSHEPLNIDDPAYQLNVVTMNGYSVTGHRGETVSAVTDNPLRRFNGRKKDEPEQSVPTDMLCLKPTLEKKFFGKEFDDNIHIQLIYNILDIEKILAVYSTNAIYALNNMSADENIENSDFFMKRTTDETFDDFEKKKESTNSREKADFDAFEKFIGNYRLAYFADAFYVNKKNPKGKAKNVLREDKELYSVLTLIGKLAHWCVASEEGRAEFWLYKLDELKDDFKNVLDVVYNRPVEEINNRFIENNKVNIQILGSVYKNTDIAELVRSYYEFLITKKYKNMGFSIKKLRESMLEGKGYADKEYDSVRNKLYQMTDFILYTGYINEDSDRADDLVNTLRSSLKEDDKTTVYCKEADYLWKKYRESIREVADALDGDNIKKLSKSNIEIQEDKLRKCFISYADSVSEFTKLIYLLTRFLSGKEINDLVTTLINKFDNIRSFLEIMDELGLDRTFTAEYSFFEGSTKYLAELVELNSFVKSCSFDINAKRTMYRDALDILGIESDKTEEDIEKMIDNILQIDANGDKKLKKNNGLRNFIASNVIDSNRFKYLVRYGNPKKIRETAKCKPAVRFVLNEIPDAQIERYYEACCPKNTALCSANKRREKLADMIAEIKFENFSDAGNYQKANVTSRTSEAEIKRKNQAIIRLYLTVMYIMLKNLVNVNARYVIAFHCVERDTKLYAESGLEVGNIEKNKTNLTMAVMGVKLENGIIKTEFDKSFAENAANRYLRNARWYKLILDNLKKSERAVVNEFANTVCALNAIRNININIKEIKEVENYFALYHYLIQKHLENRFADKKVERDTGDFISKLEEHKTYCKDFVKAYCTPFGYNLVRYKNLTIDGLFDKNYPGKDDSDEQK


target: T1, EsCas13d, nuclease-dead; assay: crRNA (strand 1, pre-loaded); Mg2+; 40 mM Tris-HCl pH 7.5, 150 mM NaCl, 6 mM MgCl2, 1 mM DTT, 0.1% Tween-20, 0.2 mg/ml BSA; 25 C; 10 min per concentration, then washed; conditions: tags: His6-TwinStrep-SUMO cleaved; N-terminal SNAP kept (SNAP-Surface 488); label: 3' end held by stalled T7 RNA polymerase

| Binder | Kd [nM] |
| --- | --- |
| target 1 C2G,A18U (mixed) RNA 1: CACCCGUGCAAAAAUGCAGGGGUCUAAAACUGAGCGGAUAACCUCUCUAUGG RNA 2: GGGAAUGGAUCCACAUCUACGAAUUCGUACCAUUGAGAGGUUAUCCGCUGACCGAGAUCGGAAGAGCACACGU | 17 ± 1.7 |
| target 1 insC 3' of 22,insG 3' of 19 (mixed) RNA 1: CACCCGUGCAAAAAUGCAGGGGUCUAAAACUGAGCGGAUAACCUCUCUAUGG RNA 2: GGGAAUGGAUCCACAUCUACGAAUUCGUACCCAUGAGAGAGGUUAUCCGCUCACCGAGAUCGGAAGAGCACACGU | 64 ± 15 |
| target 1 insA 3' of 22,insA 3' of 19 (mixed) RNA 1: CACCCGUGCAAAAAUGCAGGGGUCUAAAACUGAGCGGAUAACCUCUCUAUGG RNA 2: GGGAAUGGAUCCACAUCUACGAAUUCGUACACAUAAGAGAGGUUAUCCGCUCACCGAGAUCGGAAGAGCACACGU | 38 ± 4 |
| target 1 A1U,G17U (mixed) RNA 1: CACCCGUGCAAAAAUGCAGGGGUCUAAAACUGAGCGGAUAACCUCUCUAUGG RNA 2: GGGAAUGGAUCCACAUCUACGAAUUCGUACCAUAUAGAGGUUAUCCGCUCUCCGAGAUCGGAAGAGCACACGU | 18.8 ± 1.5 |
| target 3 U2G,U22A (mixed) RNA 1: CACCCGUGCAAAAUUGCAGGGGUCUAAAACGACCUGAAUAUUUCAGAUCAAA RNA 2: GGGAAUGGAUCCACAUCUACGAAUUCGUUAUUGAUCUGAAAUAUUCAGGGCUGCAGAUCGGAAGAGCACACGU | 25.6 ± 2.5 |
| target 3 insA 3' of 6,insC 3' of 2 (mixed) RNA 1: CACCCGUGCAAAAUUGCAGGGGUCUAAAACGACCUGAAUAUUUCAGAUCAAA RNA 2: GGGAAUGGAUCCACAUCUACGAAUUCGUUUUUGAUCUGAAAUAUUCAAGGUCCUGCAGAUCGGAAGAGCACACGU | 35 ± 9 |
| target 3 insA 3' of 22,insA 3' of 6 (mixed) RNA 1: CACCCGUGCAAAAUUGCAGGGGUCUAAAACGACCUGAAUAUUUCAGAUCAAA RNA 2: GGGAAUGGAUCCACAUCUACGAAUUCGUUUAUUGAUCUGAAAUAUUCAAGGUCUGCAGAUCGGAAGAGCACACGU | 11.1 ± 0.85 |
| target 3 G4A,G19U (mixed) RNA 1: CACCCGUGCAAAAUUGCAGGGGUCUAAAACGACCUGAAUAUUUCAGAUCAAA RNA 2: GGGAAUGGAUCCACAUCUACGAAUUCGUUUUUUAUCUGAAAUAUUCAAGUCUGCAGAUCGGAAGAGCACACGU | 98.5 ± 19.5 |
| target 3 insG 3' of 9,insC 3' of 4 (mixed) RNA 1: CACCCGUGCAAAAUUGCAGGGGUCUAAAACGACCUGAAUAUUUCAGAUCAAA RNA 2: GGGAAUGGAUCCACAUCUACGAAUUCGUUUUUGAUCUGAAAUAGUUCAGCGUCUGCAGAUCGGAAGAGCACACGU | ~102 |
| target 3 G3U,U22C (mixed) RNA 1: CACCCGUGCAAAAUUGCAGGGGUCUAAAACGACCUGAAUAUUUCAGAUCAAA RNA 2: GGGAAUGGAUCCACAUCUACGAAUUCGUUCUUGAUCUGAAAUAUUCAGUUCUGCAGAUCGGAAGAGCACACGU | 28.4 ± 5.25 |
| target 3 insA 3' of 21,insG 3' of 5 (mixed) RNA 1: CACCCGUGCAAAAUUGCAGGGGUCUAAAACGACCUGAAUAUUUCAGAUCAAA RNA 2: GGGAAUGGAUCCACAUCUACGAAUUCGUUUUAUGAUCUGAAAUAUUCAGGGUCUGCAGAUCGGAAGAGCACACGU | 71 ± 33.5 |
| target 3 G3A,C6U (mixed) RNA 1: CACCCGUGCAAAAUUGCAGGGGUCUAAAACGACCUGAAUAUUUCAGAUCAAA RNA 2: GGGAAUGGAUCCACAUCUACGAAUUCGUUUUUGAUCUGAAAUAUUUAGAUCUGCAGAUCGGAAGAGCACACGU | 42 ± 5 |
| target 3 insA 3' of 8,insC 3' of 7 (mixed) RNA 1: CACCCGUGCAAAAUUGCAGGGGUCUAAAACGACCUGAAUAUUUCAGAUCAAA RNA 2: GGGAAUGGAUCCACAUCUACGAAUUCGUUUUUGAUCUGAAAUAUAUCCAGGUCUGCAGAUCGGAAGAGCACACGU | 67.5 ± 8 |
| target 3 G4A,C6A (mixed) RNA 1: CACCCGUGCAAAAUUGCAGGGGUCUAAAACGACCUGAAUAUUUCAGAUCAAA RNA 2: GGGAAUGGAUCCACAUCUACGAAUUCGUUUUUGAUCUGAAAUAUUAAAGUCUGCAGAUCGGAAGAGCACACGU | 23.8 ± 2.65 |
| target 3 insA 3' of 3 (mixed) RNA 1: CACCCGUGCAAAAUUGCAGGGGUCUAAAACGACCUGAAUAUUUCAGAUCAAA RNA 2: GGGAAUGGAUCCACAUCUACGAAUUCGUUUUUGAUCUGAAAUAUUCAGGAUCUGCAGAUCGGAAGAGCACACGU | 25.1 ± 3.45 |
| target 3 insG 3' of 11,insU 3' of 3 (mixed) RNA 1: CACCCGUGCAAAAUUGCAGGGGUCUAAAACGACCUGAAUAUUUCAGAUCAAA RNA 2: GGGAAUGGAUCCACAUCUACGAAUUCGUUUUUGAUCUGAAAGUAUUCAGGUUCUGCAGAUCGGAAGAGCACACGU | 96 ± 21.5 |
| target 3 U8A,U22A (mixed) RNA 1: CACCCGUGCAAAAUUGCAGGGGUCUAAAACGACCUGAAUAUUUCAGAUCAAA RNA 2: GGGAAUGGAUCCACAUCUACGAAUUCGUUAUUGAUCUGAAAUAAUCAGGUCUGCAGAUCGGAAGAGCACACGU | 110 ± 38.5 |
| target 3 insU 3' of 22,insU 3' of 1 (mixed) RNA 1: CACCCGUGCAAAAUUGCAGGGGUCUAAAACGACCUGAAUAUUUCAGAUCAAA RNA 2: GGGAAUGGAUCCACAUCUACGAAUUCGUUUUUUGAUCUGAAAUAUUCAGGUCUUGCAGAUCGGAAGAGCACACGU | 77.5 ± 17.5 |
| target 3 A18G,U21A (mixed) RNA 1: CACCCGUGCAAAAUUGCAGGGGUCUAAAACGACCUGAAUAUUUCAGAUCAAA RNA 2: GGGAAUGGAUCCACAUCUACGAAUUCGUUUAUGGUCUGAAAUAUUCAGGUCUGCAGAUCGGAAGAGCACACGU | 57.5 ± 10 |
| target 3 insG 3' of 1 (mixed) RNA 1: CACCCGUGCAAAAUUGCAGGGGUCUAAAACGACCUGAAUAUUUCAGAUCAAA RNA 2: GGGAAUGGAUCCACAUCUACGAAUUCGUUUUUGAUCUGAAAUAUUCAGGUCGUGCAGAUCGGAAGAGCACACGU | 44.5 ± 9.5 |
| target 3 U2G,G14A (mixed) RNA 1: CACCCGUGCAAAAUUGCAGGGGUCUAAAACGACCUGAAUAUUUCAGAUCAAA RNA 2: GGGAAUGGAUCCACAUCUACGAAUUCGUUUUUGAUCUAAAAUAUUCAGGGCUGCAGAUCGGAAGAGCACACGU | 106 ± 42 |
| target 3 insA 3' of 21,insU 3' of 6 (mixed) RNA 1: CACCCGUGCAAAAUUGCAGGGGUCUAAAACGACCUGAAUAUUUCAGAUCAAA RNA 2: GGGAAUGGAUCCACAUCUACGAAUUCGUUUUAUGAUCUGAAAUAUUCUAGGUCUGCAGAUCGGAAGAGCACACGU | 84 ± 25.5 |
| target 3 U7G,U8G (mixed) RNA 1: CACCCGUGCAAAAUUGCAGGGGUCUAAAACGACCUGAAUAUUUCAGAUCAAA RNA 2: GGGAAUGGAUCCACAUCUACGAAUUCGUUUUUGAUCUGAAAUAGGCAGGUCUGCAGAUCGGAAGAGCACACGU | 48.5 ± 9 |
| target 3 insC 3' of 8,insU 3' of 6 (mixed) RNA 1: CACCCGUGCAAAAUUGCAGGGGUCUAAAACGACCUGAAUAUUUCAGAUCAAA RNA 2: GGGAAUGGAUCCACAUCUACGAAUUCGUUUUUGAUCUGAAAUAUCUCUAGGUCUGCAGAUCGGAAGAGCACACGU | 78 ± 11.5 |
| target 3 G3U,A18G (mixed) RNA 1: CACCCGUGCAAAAUUGCAGGGGUCUAAAACGACCUGAAUAUUUCAGAUCAAA RNA 2: GGGAAUGGAUCCACAUCUACGAAUUCGUUUUUGGUCUGAAAUAUUCAGUUCUGCAGAUCGGAAGAGCACACGU | 34.4 ± 3.25 |
| target 3 insU 3' of 22,insC 3' of 2 (mixed) RNA 1: CACCCGUGCAAAAUUGCAGGGGUCUAAAACGACCUGAAUAUUUCAGAUCAAA RNA 2: GGGAAUGGAUCCACAUCUACGAAUUCGUUUUUUGAUCUGAAAUAUUCAGGUCCUGCAGAUCGGAAGAGCACACGU | 76.5 ± 24.5 |
| target 3 insU 3' of 11,insA 3' of 7 (mixed) RNA 1: CACCCGUGCAAAAUUGCAGGGGUCUAAAACGACCUGAAUAUUUCAGAUCAAA RNA 2: GGGAAUGGAUCCACAUCUACGAAUUCGUUUUUGAUCUGAAAUUAUUACAGGUCUGCAGAUCGGAAGAGCACACGU | 100 ± 20.5 |
| target 3 insC 3' of 5,insU 3' of 4 (mixed) RNA 1: CACCCGUGCAAAAUUGCAGGGGUCUAAAACGACCUGAAUAUUUCAGAUCAAA RNA 2: GGGAAUGGAUCCACAUCUACGAAUUCGUUUUUGAUCUGAAAUAUUCACGUGUCUGCAGAUCGGAAGAGCACACGU | 9.85 ± 0.85 |
